{"source": "paper doi:10.1101/749960", "biological_target": "isolated C-terminal domain of FusB (FusBCTD) (Pectobacterium carotovorum LMG2410)", "experiment": "ITC"}
{"substance": "spinach ferredoxin (FerSp) (from UniProt P00221 51-147) (natural protein)", "values": [{"measurement": "Kd", "value": 8.7, "unit": "µM"}]}
